Publication PMC13499124, “Insights into how JIP3 and JIP4 adaptor proteins relieve the auto-inhibited form of the kinesin-1 motor” (The Journal of Biological Chemistry, 2026)

Columns and labels:
[1] = target: T1, KIF5B-CC3b-CC4-dt fragment (human, UniProt P33176 771-963); assay: MST; labelled JIP3/4 fragment (Blue-NHS dye) constant at 20 nM, KIF5B fragment titrated 120 pM to 4 uM (up to 38.2 uM when needed); 50 mM Tris pH 8.0, 200 mM NaCl, 10 mM MgCl2, 0.05% Tween 20; room temperature; Monolith NT.115, premium capillaries, MST-on 0.5-1.5 s; 1:1 Kd fit; three replicates; the paper calls its affinities relative measurements; settings: both partners purified
T1 construct: kinesin-1 heavy chain KIF5B, human, NP_004512.1, residues 771-963 (last part of CC3, CC4 and distal tail); pET28 plasmid, NdeI/XhoI; the methods call it CC3-CC4-dt; also called KIF5B-CC3-CC4-dt; KIF5B-Tail; source: E. coli Rosetta, purified (His-Trap, Superdex 75 gel filtration); not shown: His6, N-terminal, kept
T1 sequence (P33176 771-963): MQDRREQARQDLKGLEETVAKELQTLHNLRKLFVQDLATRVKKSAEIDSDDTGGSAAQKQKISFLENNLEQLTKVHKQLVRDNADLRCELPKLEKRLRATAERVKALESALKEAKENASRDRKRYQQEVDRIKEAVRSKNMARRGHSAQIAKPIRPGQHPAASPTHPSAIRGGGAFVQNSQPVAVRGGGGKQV

[2] = target: the molecule itself; assay: SEC-MALS; JIP3/4-Nter fragments in solution, single peak; dimer; conditions not shown (Fig. S1B, Table S2)
[3] = target: T2, KIF5B-CC3b-CC4 fragment, 6-histidine tag removed (human, UniProt P33176 771-914); assay: MST + other fluorescence titration; JIP3-N-RH1-lz3 wild type and alanine mutants labelled with NHS-fluorescein, constant at 20 nM; KIF5B-CC3b-CC4 without His tag titrated; 50 mM Tris pH 8.0, 200 mM NaCl, 10 mM MgCl2, 0.05% Tween 20; room temperature; Monolith NT.115; the change in overall fluorescence intensity was used for the Kd; 1:1 fit; settings: both partners purified
T2 construct: kinesin-1 heavy chain KIF5B, human, NP_004512.1, residues 771-914 (last part of CC3 and CC4); source: E. coli Rosetta, purified (His-Trap, Superdex 75 gel filtration); not shown: His6, N-terminal, cleaved
T2 sequence (P33176 771-914): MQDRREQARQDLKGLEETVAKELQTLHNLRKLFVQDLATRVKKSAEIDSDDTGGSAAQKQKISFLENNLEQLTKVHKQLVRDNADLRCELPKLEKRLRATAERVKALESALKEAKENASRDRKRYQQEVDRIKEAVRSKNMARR

| Binder | Kd [1] | Kd [3] | stoichiometry N [2] |
| --- | --- | --- | --- |
| JIP3-N-RH1-lz3 R38A (domain or fragment, mouse, UniProt Q9ESN9-1 1-100, looked up, labelled with NHS-fluorescein (Thermo Fisher Scientific), JIP3, mouse, NP_038959.2, residues 1-100 (N-RH1-lz3); also called JIP3-R38A; source: E. coli Rosetta, purified (His-Trap, gel filtration, thrombin cleavage, gel filtration); not shown: His tag, N-terminal, cleaved; thioredoxin, N-terminal, cleaved) MMEIQMDEGGGVVVYQDDYCSGSVMSERVSGLAGSIYAEFERLIHCYDEEVVKELMPLVVNVLENLDSVLSENQEHEVELELLREDNEQLLTQYEREKAL | – | 151 ± 27.8 nM | – |
| JIP3-N-RH1-lz3 E41A (domain or fragment, mouse, UniProt Q9ESN9-1 1-100, looked up, labelled with NHS-fluorescein (Thermo Fisher Scientific), JIP3, mouse, NP_038959.2, residues 1-100 (N-RH1-lz3); also called JIP3-E41A; source: E. coli Rosetta, purified (His-Trap, gel filtration, thrombin cleavage, gel filtration); not shown: His tag, N-terminal, cleaved; thioredoxin, N-terminal, cleaved) MMEIQMDEGGGVVVYQDDYCSGSVMSERVSGLAGSIYREFARLIHCYDEEVVKELMPLVVNVLENLDSVLSENQEHEVELELLREDNEQLLTQYEREKAL | – | 204 ± 57.8 nM | – |
| JIP3-N-RH1-lz3 R42A (domain or fragment, mouse, UniProt Q9ESN9-1 1-100, looked up, labelled with NHS-fluorescein (Thermo Fisher Scientific), JIP3, mouse, NP_038959.2, residues 1-100 (N-RH1-lz3); also called JIP3-R42A; source: E. coli Rosetta, purified (His-Trap, gel filtration, thrombin cleavage, gel filtration); not shown: His tag, N-terminal, cleaved; thioredoxin, N-terminal, cleaved) MMEIQMDEGGGVVVYQDDYCSGSVMSERVSGLAGSIYREFEALIHCYDEEVVKELMPLVVNVLENLDSVLSENQEHEVELELLREDNEQLLTQYEREKAL | – | 90.8 ± 12.6 nM | – |
| JIP3-N-RH1-lz3 E54A (domain or fragment, mouse, UniProt Q9ESN9-1 1-100, looked up, labelled with NHS-fluorescein (Thermo Fisher Scientific), JIP3, mouse, NP_038959.2, residues 1-100 (N-RH1-lz3); also called JIP3-E54A; source: E. coli Rosetta, purified (His-Trap, gel filtration, thrombin cleavage, gel filtration); not shown: His tag, N-terminal, cleaved; thioredoxin, N-terminal, cleaved) MMEIQMDEGGGVVVYQDDYCSGSVMSERVSGLAGSIYREFERLIHCYDEEVVKALMPLVVNVLENLDSVLSENQEHEVELELLREDNEQLLTQYEREKAL | – | 226 ± 26.4 nM | – |

The next lines start with results.

| Kd [1] | Kd [3] | Binder | stoichiometry N [2] |
| --- | --- | --- | --- |
| 682 ± 187 nM | – | JIP4-RH1-lz3 fragment (domain or fragment, UniProt O60271 18-95, looked up, labelled with a fluorescent dye in the MST assay (legend of Figure 4), JIP4, RH1 domain and first three heptad repeats of LZI, without the 17-residue N-terminus) AVMSERVSGLAGSIYREFERLIGRYDEEVVKELMPLVVAVLENLDSVFAQDQEHQVELELLRDDNEQLITQYEREKAL | 2 |
| – | 395 ± 137 nM | JIP3-N-RH1-lz3 E39A (domain or fragment, mouse, UniProt Q9ESN9-1 1-100, looked up, labelled with NHS-fluorescein (Thermo Fisher Scientific), JIP3, mouse, NP_038959.2, residues 1-100 (N-RH1-lz3); also called JIP3-E39A; source: E. coli Rosetta, purified (His-Trap, gel filtration, thrombin cleavage, gel filtration); not shown: His tag, N-terminal, cleaved; thioredoxin, N-terminal, cleaved) MMEIQMDEGGGVVVYQDDYCSGSVMSERVSGLAGSIYRAFERLIHCYDEEVVKELMPLVVNVLENLDSVLSENQEHEVELELLREDNEQLLTQYEREKAL | – |
| – | 118 ± 23 nM | JIP3-N-RH1-lz3 N65A (domain or fragment, mouse, UniProt Q9ESN9-1 1-100, looked up, labelled with NHS-fluorescein (Thermo Fisher Scientific), JIP3, mouse, NP_038959.2, residues 1-100 (N-RH1-lz3); also called JIP3-N65A; source: E. coli Rosetta, purified (His-Trap, gel filtration, thrombin cleavage, gel filtration); not shown: His tag, N-terminal, cleaved; thioredoxin, N-terminal, cleaved) MMEIQMDEGGGVVVYQDDYCSGSVMSERVSGLAGSIYREFERLIHCYDEEVVKELMPLVVNVLEALDSVLSENQEHEVELELLREDNEQLLTQYEREKAL | – |
| 47.5 ± 4.6 nM | – | JIP3-N-RH1-lz3 L70F-S71A-E72Q-N73D (domain or fragment, mouse, UniProt Q9ESN9-1 1-100, looked up, labelled with a fluorescent dye in the MST assay (legend of Figure 4), JIP3, mouse, NP_038959.2, residues 1-100 (N-RH1-lz3), residues changed to those of JIP4; also called JIP3-L70F-S71A-E72Q-N73D; source: E. coli Rosetta, purified (His-Trap, gel filtration, thrombin cleavage, gel filtration); not shown: His tag, N-terminal, cleaved; thioredoxin, N-terminal, cleaved) MMEIQMDEGGGVVVYQDDYCSGSVMSERVSGLAGSIYREFERLIHCYDEEVVKELMPLVVNVLENLDSVFAQDQEHEVELELLREDNEQLLTQYEREKAL | – |
